The term Kd denotes a measure of binding affinity in units of concentration.

Assay [1] concerns the target T1, Aurora A kinase (human, UniProt O14965 122-403, limits assumed).
T1 construct: also called AurA; deP AurA
T1 sequence: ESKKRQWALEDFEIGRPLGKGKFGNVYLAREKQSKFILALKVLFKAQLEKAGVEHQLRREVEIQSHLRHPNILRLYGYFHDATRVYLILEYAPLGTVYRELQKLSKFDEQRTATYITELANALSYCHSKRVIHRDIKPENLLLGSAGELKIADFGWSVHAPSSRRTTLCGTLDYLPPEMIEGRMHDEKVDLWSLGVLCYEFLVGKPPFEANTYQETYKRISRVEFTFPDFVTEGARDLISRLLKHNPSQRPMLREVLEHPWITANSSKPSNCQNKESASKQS
Kind of assay: yeast display titration of the clone with wild type Aurora A, mean fluorescence.

A further assay addresses T2, Y199H.
T2 construct: also called Y199H mutant Aurora A; Y199H Aurora A hotspot mutant
T2 chain: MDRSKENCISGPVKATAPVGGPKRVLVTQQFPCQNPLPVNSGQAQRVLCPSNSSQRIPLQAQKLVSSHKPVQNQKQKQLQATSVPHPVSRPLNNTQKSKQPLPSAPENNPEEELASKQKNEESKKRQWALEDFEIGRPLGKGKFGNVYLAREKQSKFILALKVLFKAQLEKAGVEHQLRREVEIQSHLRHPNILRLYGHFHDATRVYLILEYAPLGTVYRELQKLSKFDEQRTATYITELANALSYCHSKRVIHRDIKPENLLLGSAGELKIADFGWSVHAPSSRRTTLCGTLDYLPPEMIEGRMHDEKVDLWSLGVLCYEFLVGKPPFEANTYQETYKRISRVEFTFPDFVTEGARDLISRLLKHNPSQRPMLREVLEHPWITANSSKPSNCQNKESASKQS
Kind of assay: yeast display, single point with Y199H Aurora A, mean fluorescence.

Assay [2] addresses T1, Aurora A kinase. Kind of assay: isothermal titration calorimetry with dephosphorylated Aurora A (deP AurA).
For assay [3], the target named is T1, Aurora A kinase. The assay is described as above. The source holds these as a separate data set.
In assay [4] the target is T1, Aurora A kinase. The description is as above. On the set-up: dS: unit not given here.
The target in a further assay is T3, Y199K.
T3 construct: also called Y199K mutant Aurora A; Y199K Aurora A hotspot mutant
T3 chain: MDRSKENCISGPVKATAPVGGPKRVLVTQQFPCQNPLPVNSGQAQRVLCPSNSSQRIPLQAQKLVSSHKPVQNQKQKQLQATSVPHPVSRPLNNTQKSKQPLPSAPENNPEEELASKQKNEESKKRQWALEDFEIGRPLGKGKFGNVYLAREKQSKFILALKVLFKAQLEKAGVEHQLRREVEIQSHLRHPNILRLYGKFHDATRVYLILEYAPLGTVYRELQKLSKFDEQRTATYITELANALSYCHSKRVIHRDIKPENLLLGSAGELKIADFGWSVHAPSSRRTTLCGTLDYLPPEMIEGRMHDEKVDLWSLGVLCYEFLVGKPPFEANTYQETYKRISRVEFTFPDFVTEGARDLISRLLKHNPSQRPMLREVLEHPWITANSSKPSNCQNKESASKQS
Kind of assay: yeast display, single point with Y199K Aurora A, mean fluorescence.

Assay [5] has as its target T1, Aurora A kinase. Kind of assay: isothermal titration calorimetry with dephosphorylated Aurora A (deP AurA). This is another data set of the same source. (In general: Isothermal titration calorimetry measures the heat released or taken up as one component is titrated into another.)
Assay [6] has as its target T1, Aurora A kinase. Kind of assay: method not stated; told in the isothermal titration calorimetry paragraph.
Assay [7] concerns the target T1, Aurora A kinase. Kind of assay: isothermal titration calorimetry with dephosphorylated Aurora A (deP AurA). Further details: dS: unit not given here. This is another data set of the same source.
In assay [8] the target is T1, Aurora A kinase. Kind of assay: isothermal titration calorimetry; Mb60 alone, not the sGFP fusion (FIG. 6C).
Assay [9] has as its target T1, Aurora A kinase. Kind of assay: isothermal titration calorimetry.
The target of assay [10] is T1, Aurora A kinase. Nature of the assay: isothermal titration calorimetry with dephosphorylated Aurora A (deP AurA). The source holds these as a separate data set.

Where two headings read alike, the source gives them in different places.

B1: monobody Mb54 (designed binder)
chain: SVSSVPTKLEVVAATPTSLLISWDAQTYQMYDYVSYYRITYGETGGNSPVQEFTVPGYYSTATISGLKPGVDYTITVYAEGYYSSYSPISINYRT
notes: Monobody on a fibronectin type III (FN3) scaffold; also called AuroraA_54
In the assay with Aurora A kinase [1], B1 had a Kd of 81 nM. In addition, the binding result in the assay with Y199H is “no binding (tested: 2000 (axis unit not printed))”. In the assay with Aurora A kinase [2], this molecule came in with a Kd of 175000 nM, a dH of -24.2 kcal/mol, a dS of -210 J/mol*K and a n of 0.92.

B2: monobody Mb2 (designed binder)
chain: SVSSVPTKLEVVAATPTSLLISWDAFGHQYEPVYYYRITYGETGGNSPVQEFTVPGYYSTATISGLKPGVDYTITVYAWYVDGSYSSPISINYRT
notes: Monobody on a fibronectin type III (FN3) scaffold; also called AuroraA_2
B2: the Kd with Aurora A kinase [1] is 16.7 nM. Also, the binding result in the assay with Y199H is listed as “no binding (tested: 2000 (axis unit not printed))”. In the assay with Aurora A kinase [3], this molecule gave a Kd of 8.7 nM, a dH of -16.1 kcal/mol, a dS of -71.6 J/mol*K and a n of 1.02.

B3: monobody Mb56 (designed binder)
chain: SVSSVPTKLEVVAATPTSLLISWDAMSDWYYWVDYYRITYGETGGNSPVQEFTVPGSYSTATISGLKPGVDYTITVYASDDVWGDYSPISINYRT
notes: Monobody on a fibronectin type III (FN3) scaffold; also called AuroraA_56
Consider B3, for which binding in the assay with Aurora A kinase [1] was put at a Kd of 60 nM. In the assay with Aurora A kinase [4], this molecule gave a Kd of 163 nM, a dH of -10.1 kcal/mol, a dS of -29.1 and a n of 0.94. Besides, the binding result with Y199K is reported as “no binding (tested: 2000 (axis unit not printed))”.

B4: monobody Mb51 (designed binder)
chain: SVSSVPTKLEVVAATPTSLLISWDAKPMSYEPVYYYRITYGETGGNSPVQEFTVPGYYSTATISGLKPGVDYTITVYADSMSSYYYSPISINYRT
notes: Monobody on a fibronectin type III (FN3) scaffold; also called AuroraA_51
On to B4, for which binding with Aurora A kinase [1] was characterised by a dissociation constant (Kd) of 6 nM. The binding result with Y199K is on record as “no binding (tested: 2000 (axis unit not printed))”. For the same molecule, in the assay with Aurora A kinase [5], the affinity, expressed as Kd, was 27.4 nM; the dH was -9.11 kcal/mol; the dS was -16.9 J/mol*K; the n was found to be 0.93.

B5: TPX2 (other)
chain: MSQVKSSYSYDAPSDFINFSSLDDEGDTQNIDSWFEEKANLENKL
notes: also called TPX2 polypeptide
In the assay with Aurora A kinase [6], B5 had a Kd of 50000 nM.

B6: monobody Mb60 (designed binder)
chain: SVSSVPTKLEVVAATPTSLLISWDAPAVTVVHYVITYGETGGNSPVQEFTVPGSKSTATISGLKPGVDYTITVYAIDFYWGSYSPISINYRT
notes: Monobody on a fibronectin type III (FN3) scaffold; also called AuroraA_60
For the molecule B6, the Kd with Aurora A kinase [1] was 25 nM. In the assay with Aurora A kinase [7], this molecule had an equilibrium dissociation constant (Kd) of 1200 nM, a dH of -31.9 kcal/mol, a dS of -334 and a n of 0.92. Besides, the binding result with Y199K is given as “no binding (tested: 2000 (axis unit not printed))”. Besides, in the assay with Aurora A kinase [8], the Kd is around 1000 nM.

B7: monobody Mb60 fused to supercharged GFP (designed binder)
chain: SVSSVPTKLEVVAATPTSLLISWDAPAVTVVHYVITYGETGGNSPVQEFTVPGSKSTATISGLKPGVDYTITVYAIDFYWGSYSPISINYRT
notes: also called sGFP-Mb60; not shown: supercharged green fluorescent protein
The molecule B7 had a Kd in the assay with Aurora A kinase [9] of around 9900 nM.

B8: monobody Mb44 (designed binder)
chain: SVSSVPTKLEVVAATPTSLLISWDAPAVTVDFYVITYGETGGYSYPWQEFEVPGSKSTATISGLKPGVDYTITVYADYGQYFYSPISINYRT
notes: Monobody on a fibronectin type III (FN3) scaffold; also called AuroraA_44
For B8, in the assay with Aurora A kinase [1], the Kd was 42 nM. Also, in the assay with Aurora A kinase [10], the Kd is 2600 nM, the dH was -13.7 kcal/mol, the dS was -84.9 J/mol*K and the n is 1.06.

Source of the values: patent US20180334510A1 (BRANDEIS UNIVERSITY, published 2018).
